Read-outs that look alike come from different tables or passages of the source.
What was measured:
[1] = biological target: T1, human pIgR extracellular domain 1 (D1) (human, UniProt P01833 19-127); experiment: ECL (MSD) heat map, HIS-tagged construct captured via anti-HIS, anti-human-Fc detection
T1 construct: HIS-tagged construct made in HEK293 cells; also called hpIgR domain-1
Method: (§1) A meso-scale discovery (MSD) platform was used for conducting epitope mapping and epitope burial studies. To test the binding of VHH-mono-Fc molecules to purified pIgR protein constructs, Streptavidin MSD plates were coated with a biotinylated anti-HIS antibody (2 μg/ml in PBS) for 1 hour at RT with 1000 rpm, washed 3× with PBT (PBS+0.1% Tween-20), incubated with blocking buffer for 1 hour at RT, incubated with His-tagged pIgR proteins (10 μg/ml in PBS) for 2 hours at RT with 1000 rpm, washed 3× with PBT, incubated with VHH-mono-Fc molecules (100 μg/ml in PBS) for 2 hours at RT with 1000 rpm, washed 3× with PBT, incubated with ruthenylated-anti-human-Fc antibody (2 μg/ml in PBS) for 1 hour at RT with 1000 rpm, washed 3× with PBT and read plates in 40 ul reading buffer using the MSD imager. ECLU values were plotted as a heatmap.
(§2) Binding of VHH-mFc molecules were tested to immobilized pIgR constructs by the electrochemiluminescence method.

[2] = biological target: T2, human pIgR extracellular domain 5 (D5) (human, UniProt P01833 460-565); experiment: as above
T2 construct: HIS-tagged construct made in HEK293 cells; also called hpIgR domain 5
Method: as §1, §2

[3] = biological target: T3, human pIgR extracellular domain 1-domain 2 (D1-D2) (human, UniProt P01833 19-240); experiment: as above
T3 construct: HIS-tagged construct made in HEK293 cells
Method: (§3) The Electrochemiluminescence assay was performed as follows. A meso-scale discovery (MSD) platform was used for conducting epitope mapping and epitope burial studies. To test the binding of VHH-mono-Fc molecules to purified pIgR protein constructs, Streptavidin MSD plates were coated with a biotinylated anti-HIS antibody (2 μg/ml in PBS) for 1 hour at RT with 1000 rpm, washed 3× with PBT (PBS+0.1% Tween-20), incubated with blocking buffer for 1 hour at RT, incubated with His-tagged pIgR proteins (10 μg/ml in PBS) for 2 hours at RT with 1000 rpm, washed 3× with PBT, incubated with VHH-mono-Fc molecules (100 μg/ml in PBS) for 2 hours at RT with 1000 rpm, washed 3× with PBT, incubated with ruthenylated-anti-human-Fc antibody (2 μg/ml in PBS) for 1 hour at RT with 1000 rpm, washed 3× with PBT and read plates in 40 ul reading buffer using the MSD imager. ECLU values were plotted as a heatmap.

[4] = biological target: T4, human pIgR extracellular domain 2 (D2) (human, UniProt P01833 128-242); experiment: as above
T4 construct: HIS-tagged construct made in HEK293 cells; also called hpIgR domain 2
Method: as §3

[5] = biological target: T5, human pIgR extracellular domain 4-domain 5 (D4-D5) (human, UniProt P01833 350-565); experiment: as above
T5 construct: HIS-tagged construct made in HEK293 cells; also called hpIgR domains 4-5
T5 chain: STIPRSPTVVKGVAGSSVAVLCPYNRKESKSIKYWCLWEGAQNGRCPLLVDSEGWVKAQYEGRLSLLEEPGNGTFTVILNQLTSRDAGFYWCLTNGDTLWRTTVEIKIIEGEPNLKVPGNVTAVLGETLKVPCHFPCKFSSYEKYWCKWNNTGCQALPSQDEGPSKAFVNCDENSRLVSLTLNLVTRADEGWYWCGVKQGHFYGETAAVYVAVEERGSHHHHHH
Method: as §3

[6] = biological target: T6, human pIgR, full-length, on cells (human, UniProt P01833 19-764); experiment: cell-based or functional assay
[7] = biological target: T6, human pIgR, full-length, on cells; experiment: cell-based or functional assay; remark: listed apart in the source
[8] = biological target: T6, human pIgR, full-length, on cells; experiment: cell-based or functional assay; remark: listed apart in the source
[9] = biological target: T6, human pIgR, full-length, on cells; experiment: flow cytometry on MDCK-hpIgR cells
[10] = biological target: T7, human pIgR extracellular domain (ECD) (human, UniProt P01833 19-638); experiment: BLI; summary table, repeats Table 1
T7 construct: also called hpIgR ECD
Target sequence in this assay (P01833 other isoform, or with tags, fused parts or gaps): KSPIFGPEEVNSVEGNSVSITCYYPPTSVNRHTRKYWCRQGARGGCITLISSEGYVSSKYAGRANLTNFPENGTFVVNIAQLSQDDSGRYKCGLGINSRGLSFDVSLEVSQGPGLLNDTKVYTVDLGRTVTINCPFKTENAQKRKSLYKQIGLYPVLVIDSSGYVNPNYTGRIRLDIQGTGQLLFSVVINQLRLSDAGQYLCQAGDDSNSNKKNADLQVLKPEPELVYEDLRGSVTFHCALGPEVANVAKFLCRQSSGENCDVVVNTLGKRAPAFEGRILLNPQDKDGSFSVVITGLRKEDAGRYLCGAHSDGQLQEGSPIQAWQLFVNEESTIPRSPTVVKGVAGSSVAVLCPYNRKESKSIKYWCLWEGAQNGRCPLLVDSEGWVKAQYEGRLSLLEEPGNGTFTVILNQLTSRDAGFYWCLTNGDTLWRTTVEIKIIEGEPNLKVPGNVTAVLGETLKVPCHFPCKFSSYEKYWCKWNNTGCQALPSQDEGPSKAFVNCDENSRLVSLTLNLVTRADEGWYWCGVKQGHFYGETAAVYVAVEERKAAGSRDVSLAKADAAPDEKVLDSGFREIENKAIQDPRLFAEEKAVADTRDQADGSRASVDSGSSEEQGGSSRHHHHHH

[11] = biological target: T7, human pIgR extracellular domain (ECD); experiment: BLI; summary table, repeats Table 1; remark: listed apart in the source
Target sequence in this assay (P01833 other isoform, or with tags, fused parts or gaps): as above

[12] = biological target: T7, human pIgR extracellular domain (ECD); experiment: BLI (Octet), VHH-mono-Fc and hpIgR ectodomain
Target sequence in this assay (P01833 other isoform, or with tags, fused parts or gaps): as above

[13] = biological target: T7, human pIgR extracellular domain (ECD); experiment: ECL (MSD), hpIgR-ECD coated, anti-Fc detection
[14] = biological target: T7, human pIgR extracellular domain (ECD); experiment: ECL (MSD), hpIgR-ECD coated, anti-VHH detection
Target sequence in this assay (P01833 other isoform, or with tags, fused parts or gaps): as above
Method: (§4) To check whether VHH recognizes a buried epitope on pIgR, EC₅₀ values were measured for VHH-mono-Fc molecules binding to hpIgR-ECD protein by electrochemiluminescence using two different detection antibodies, an anti-Fc antibody and an anti-VHH antibody. pIgR ECD (10 μg/ml in PBS) was coated on high-bind MSD plates for 2 hours at RT with 1000 rpm, incubated with blocking buffer for 1 hour at RT, incubated with VHH-mono-Fc molecules (increasing concentrations in PBS) for 2 hours at RT with 1000 rpm, washed 3× with PBT, incubated with ruthenylated secondary antibody (2 μg/ml in PBS) for 1 hour at RT with 1000 rpm, washed 3× with PBT and read plates in 40 ul reading buffer using the MSD imager. EC50 was calculated by fitting log VHH concentration versus log ECLU in Prism (Graphpad). The increase in EC₅₀ (>50-fold) due to anti-VHH detection was used as a measure to determine whether VHH recognized buried epitope on pIgR.

[15] = biological target: T7, human pIgR extracellular domain (ECD); experiment: ECL (MSD), anti-VHH detection against anti-Fc detection
Target sequence in this assay (P01833 other isoform, or with tags, fused parts or gaps): as above
Method: as §4

[16] = biological target: T7, human pIgR extracellular domain (ECD); experiment: BLI (Octet RED384), 1:1 fit, 25 C, PBS
Target sequence in this assay (P01833 other isoform, or with tags, fused parts or gaps): as above

[17] = biological target: T5, human pIgR extracellular domain …; experiment: BLI (Octet RED384), 1:1 fit, 25 C, PBS
[18] = biological target: T6, human pIgR, full-length, on cells; experiment: flow cytometry on MDCK-hpIgR cells; summary table, repeats Table 1
[19] = biological target: T6, human pIgR, full-length, on cells; experiment: as above; remark: listed apart in the source
[20] = biological target: T7, human pIgR extracellular domain (ECD); experiment: BLI (Octet RED384), 1:1 fit, 25 C, PBS; column kdis
[21] = biological target: T5, human pIgR extracellular domain …; experiment: as above
hpIgR_D3 = biological target: T8, hpIgR_D3; experiment: ECL (MSD) heat map, HIS-tagged construct captured via anti-HIS, anti-human-Fc detection;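 further: VHH-mono-Fc molecules tested at 100 µg/ml for 2 h on captured His-tagged pIgR constructs (10 µg/ml), read-out as electrochemiluminescence units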
T8 construct: HIS-tagged construct from HEK293 cells; also called human pIgR extracellular domain 3 (D3); hD3
Method: as §1, §2
T8 HIS-tagged domain construct: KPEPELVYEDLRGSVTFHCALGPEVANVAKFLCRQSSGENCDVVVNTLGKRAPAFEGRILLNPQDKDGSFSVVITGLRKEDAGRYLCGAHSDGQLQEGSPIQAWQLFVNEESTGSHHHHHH

[22] = biological target: T4, human pIgR extracellular domain 2 (D2); experiment: as above; remark: listed apart in the source
Method: as §1, §2

hpIgR_D2-D3 = biological target: T9, hpIgR_D2-D3; experiment: as above
T9 construct: HIS-tagged construct from HEK293 cells; also called human pIgR extracellular domain 2-domain 3 (D2-D3); hD2-D3
Method: as §3
T9 HIS-tagged domain construct: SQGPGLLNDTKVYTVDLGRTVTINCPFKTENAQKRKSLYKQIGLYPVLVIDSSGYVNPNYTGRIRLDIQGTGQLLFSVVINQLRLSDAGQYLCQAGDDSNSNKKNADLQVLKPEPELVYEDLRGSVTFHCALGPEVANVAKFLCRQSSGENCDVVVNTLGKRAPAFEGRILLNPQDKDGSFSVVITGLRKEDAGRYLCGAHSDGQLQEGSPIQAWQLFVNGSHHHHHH

[23] = biological target: T1, human pIgR extracellular domain 1 (D1); experiment: as above; remark: listed apart in the source
Method: as §3

T6 sequence (P01833 19-764): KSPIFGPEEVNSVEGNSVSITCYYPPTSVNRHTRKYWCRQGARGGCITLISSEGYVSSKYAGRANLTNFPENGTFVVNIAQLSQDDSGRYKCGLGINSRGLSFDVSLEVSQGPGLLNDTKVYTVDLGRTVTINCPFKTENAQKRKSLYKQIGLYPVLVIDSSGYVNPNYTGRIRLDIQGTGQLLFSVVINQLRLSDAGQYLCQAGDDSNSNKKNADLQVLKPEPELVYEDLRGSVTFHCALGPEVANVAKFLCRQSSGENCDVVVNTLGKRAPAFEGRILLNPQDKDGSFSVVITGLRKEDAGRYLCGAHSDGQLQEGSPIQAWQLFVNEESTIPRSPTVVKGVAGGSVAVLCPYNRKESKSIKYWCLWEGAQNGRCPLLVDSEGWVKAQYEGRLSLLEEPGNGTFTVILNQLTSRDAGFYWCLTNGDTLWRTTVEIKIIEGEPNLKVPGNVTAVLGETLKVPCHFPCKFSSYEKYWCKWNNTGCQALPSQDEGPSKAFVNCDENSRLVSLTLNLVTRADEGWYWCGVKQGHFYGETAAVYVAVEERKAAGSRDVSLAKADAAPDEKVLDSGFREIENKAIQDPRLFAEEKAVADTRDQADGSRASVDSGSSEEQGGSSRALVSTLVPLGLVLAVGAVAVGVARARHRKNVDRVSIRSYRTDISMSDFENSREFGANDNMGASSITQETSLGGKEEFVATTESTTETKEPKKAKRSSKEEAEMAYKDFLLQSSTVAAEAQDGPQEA

B1: VHH1 (Fc fusion)
VHH-linker-mono-Fc chain: QVQLVESGGGLVQAGGSLKLACAAPGLTFSSYRMGWFRQAPGQEREFVAAIDWNGRGTYYRYYADSVKGRSTISRDNAKNTMYLQMNSLKPEDTAVYYCAAGSIDLNWYGGMDYWGQGTQVTVSSEPKTPKPQPQPQLQPQPNPTTESKSPKSPAPELLGGPSVFLFPPKPKDTLMISRTPEVTCVVVDVSHEDPEVKFNWYVDGVEVHNAKTKPREEQYNSTYRVVSVLTVLHQDWLNGKEYKCKVSNKALPAPIEKTISKAKGQPREPQVYTKPPSREEMTKNQVSLSCLVKGFYPSDIAVEWESNGQPENNYKTTVPVLDSDGSFRLASYLTVDKSRWQQGNVFSCSVMHEALHNHYTQKSLSLSPGK
notes: Control VHH; also called mpIgR_011; VHH1-linker-mono-Fc protein
[1]
  binding result: no binding (tested: 100 ug/ml (single concentration))
[2]
  binding result: no binding (tested: 100 ug/ml (single concentration))
[3]
  binding result: no binding (tested: 100 ug/ml (single concentration))
[4]
  binding result: no binding (tested: 100 ug/ml (single concentration))
[5]
  binding result: no binding (tested: 100 ug/ml (single concentration))

B2: VHH12-linker-mono-Fc protein (Fc fusion)
chain: QVQLVETGGGLVQAGDSLRLSCAASGRTLSFNTYAMGWFRQAPGKEREFVASITWNGGSTSYADSVKGRFTITRDNAKNTATLRMNSLQPDDTAVYYCAAARYYVSGTYFPANYWGQGTQVTVSSEPKTPKPQPQPQLQPQPNPTTESKSPKSPAPELLGGPSVFLFPPKPKDTLMISRTPEVTCVVVDVSHEDPEVKFNWYVDGVEVHNAKTKPREEQYNSTYRVVSVLTVLHQDWLNGKEYKCKVSNKALPAPIEKTISKAKGQPREPQVYTKPPSREEMTKNQVSLSCLVKGFYPSDIAVEWESNGQPENNYKTTVPVLDSDGSFRLASYLTVDKSRWQQGNVFSCSVMHEALHNHYTQKSLSLSPGK
notes: made in CHO cells; also called VHH12-mono-Fc; hpIgR_266
[6]
  increase in their apical concentration relative to control VHH (MDCK-hpIgR monolayers): > 10 fold
[7]
  Transcytosis (Fold Incr.): 38.6 fold
[8]
  For. Trans. (Fold Incr.): 29.5 fold
  Rev. Trans (Fold Incr.): 11.7 fold
[9]
  EC50: 4.6 nM
[10]
  Kd: 34 nM
[11]
  Kd: 34 nM
[12]
  Kd: 34 nM
[13]
  EC50: 0.5 nM
[14]
  EC50: 0.2 nM
[15]
  Fold change in EC50: 0.4 fold
[16]
  Kd: 43.3 nM
  kon: 38300 M⁻¹ s⁻¹
[17]
  Kd: 73.1 nM
  kon: 38500 M⁻¹ s⁻¹
[18]
  EC50: 4.6 nM
[19]
  EC50: 4.6 nM
[20]
  koff: 0.00166 s⁻¹
[21]
  koff: 0.00281 s⁻¹
hpIgR_D3
  binding result: no binding (tested: 100 ug/ml (single concentration))
[22]
  binding result: no binding (tested: 100 ug/ml (single concentration))
hpIgR_D2-D3
  binding result: no binding (tested: 100 ug/ml (single concentration))
[23]
  binding result: no binding (tested: 100 ug/ml (single concentration))
[3]
  binding result: no binding (tested: 100 ug/ml (single concentration))

Reference: US20220324970A1 (Janssen / Centocor, published 2022)
